Results on two molecules are retold here after patent US20170008955A1 (CNJ, published 2017).

For one assay, the target named is T1, Ovalbumin (UniProt P01012 2-386).
T1 sequence (looked up): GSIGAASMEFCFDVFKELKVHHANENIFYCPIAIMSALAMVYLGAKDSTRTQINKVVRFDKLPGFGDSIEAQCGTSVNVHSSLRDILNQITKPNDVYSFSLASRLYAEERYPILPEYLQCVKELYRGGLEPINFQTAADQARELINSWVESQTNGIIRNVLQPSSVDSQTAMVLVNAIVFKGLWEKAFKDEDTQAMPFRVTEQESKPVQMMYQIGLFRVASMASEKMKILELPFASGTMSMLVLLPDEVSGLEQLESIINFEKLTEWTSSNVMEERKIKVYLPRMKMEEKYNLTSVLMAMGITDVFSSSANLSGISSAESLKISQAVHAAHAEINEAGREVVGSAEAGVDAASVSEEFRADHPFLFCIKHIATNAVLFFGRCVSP
The assay can be described thus: Western blot of BSA, BSA-cSNK and ovalbumin probed with hu5E3-IgG1. A general note: Immunoblotting shows a protein as a band on a membrane.

The target of assay [1] is T2, cSNK:BSA conjugate (bovine, head-to-tail cyclized; conjugated to BSA carrier).
T2 construct: also called BSA-cSNK
T2 sequence (P02769 25-607 limits assumed): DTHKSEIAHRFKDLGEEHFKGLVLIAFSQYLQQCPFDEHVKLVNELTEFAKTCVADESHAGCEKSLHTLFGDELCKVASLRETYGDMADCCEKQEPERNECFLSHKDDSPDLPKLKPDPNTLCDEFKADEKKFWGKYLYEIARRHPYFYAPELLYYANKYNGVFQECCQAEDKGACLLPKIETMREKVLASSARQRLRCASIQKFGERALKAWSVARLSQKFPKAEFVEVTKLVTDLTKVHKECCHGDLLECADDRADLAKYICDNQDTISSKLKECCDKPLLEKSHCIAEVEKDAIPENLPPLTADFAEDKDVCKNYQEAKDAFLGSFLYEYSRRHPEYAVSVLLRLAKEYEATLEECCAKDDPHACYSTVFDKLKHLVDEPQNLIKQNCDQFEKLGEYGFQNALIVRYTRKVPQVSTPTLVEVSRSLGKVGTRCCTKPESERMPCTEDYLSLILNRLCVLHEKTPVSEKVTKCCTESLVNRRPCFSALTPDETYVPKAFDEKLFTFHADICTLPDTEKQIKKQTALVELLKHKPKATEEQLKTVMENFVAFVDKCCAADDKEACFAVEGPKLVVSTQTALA
The assay can be described thus: BLI (Octet), KD2; unlabelled reference row, taken as hu5E3.

Assay [2] has as its target T2, cSNK:BSA conjugate. The assay can be described thus: BLI 2:1 fit, site 1 (KD1); 25 nM row. As for the experimental part:
(§1) Biolayer interferometry (Octet […], ForteBio) was used to qualitatively/quantitatively assess the interactions between humanized versions of 5E3 and cSNK:BSA conjugate. […] MAbs were loaded onto sensors and then washed in PBST. Each sensor was associated with one of several cSNK:BSA standards (100 nM to 0 nM) and then washed in PBST. Data was processed statistically using ForteBio Data Analysis software to determine the strength of antigen-antibody binding (KD). For each mAb analyzed, a 2:1 model provided the “best fit”.

Assay [3] deals with T2, cSNK:BSA conjugate. The assay can be described thus: BLI 2:1 fit, site 1 (KD1); 6.25 nM row. As for the experimental part:
as §1

For assay [4], the target named is T2, cSNK:BSA conjugate. The assay can be described thus: BLI 2:1 fit, site 1 (KD1); 12.5 nM row. As for the experimental part:
as §1

Assay [5] addresses T2, cSNK:BSA conjugate. The assay can be described thus: BLI 2:1 fit, site 1 (KD1); 100 nM row. As for the experimental part: as §1

Substitutions are numbered along the chain they refer to.

B1: hu5E3-IgG1 (antibody, V domains shown)
VH: QVQLQQSGPEVKKPGASVKISCKASGYIFTSYYIQWVIHAPGQGLEWIGWIYPGNVNTKYNEKFKGKATLTADKSSSTAYMELSSLTSEDTAVYFCARMDYEAHYWGQGTTVTVSS
VL: DIQMTQSPSSLSASVGDRVTITCRASQEISGYLTWLQQKPEGAIKRLIYAASTLDSGVPKRFSGSRSGSDYSLTISSLQPEDFATYNCLQYANYPRTFGGGTKLEIK
notes: human IgG1/kappa; also called humanized 5E3 IgG1; IHA variant
A word on the Kd: it is the constant that tells how readily two partners part at equilibrium. A higher Kd goes with lower affinity. For B1, in the assay with Ovalbumin, the binding result is “no binding”. Moreover, the equilibrium dissociation constant (Kd) with cSNK:BSA conjugate [1] stood at 15.1 nM.

B2: rehu5E3-IgG4 (antibody, V domains shown)
VH: B1 VH with K12V, T87R, T91S, T111L
VL: B1 VL with V15L, I21L, G42K, S72T, T85D
notes: human IgG4/kappa; also called IgG4 rehu version
On to B2, for which the Kd with cSNK:BSA conjugate [2], in the assay with cSNK:BSA conjugate [3], with cSNK:BSA conjugate [4] and with cSNK:BSA conjugate [5] was 0.557 nM each time.
